Numbering of substitutions follows the chain as printed.
B1: humanized antibody RB4-G1-018 (antibody, human IgG1, kappa, V domains shown)
VH: QVQLVQSGAEVKKPGASVKVSCKASGYTFTSYWMHWVRQAPGQGLEWIGEINPSNGRTNYNEKFKSRATLTVDKSTSTAYMELSSLRSEDTAVYYCARDRYDEGNAMDYWGQGTTVTVSS
VL: DIQMTQSPSSLSASVGDRVTITCRASQDITNYLNWYQQKPGKAPKLLIYYTSRLHSGVPSRFSGSGSGTEYTLTISSLQPDDFATYYCQQGDTLPRTFGQGTRLEIKR
B2: humanized antibody RB4-G1-020 (antibody, human IgG1, kappa, V domains shown)
VH: B1 VH with I48M, A68V, L70M, V72R, K74T, A79V
VL: B1 VL
B3: humanized antibody RB4-G1-019 (antibody, human IgG1, kappa, V domains shown)
VH: B1 VH with I48M, A68V, A79V
VL: B1 VL
B4: humanized antibody RB4-G1-022 (antibody, human IgG1, kappa, V domains shown)
VH: B1 VH
VL: B1 VL with E70D, L73F, D81E, F83I
B5: chimeric antibody 3A2-18 (antibody, V domains shown)
VH: EVQLQQPGAELVKPGASVKLSCKASGYTFTSYWMHWVKQRPGQGLEWIGEINPSNGRTNYNEKFKSKATLTVDKSSSTAYVQLNSLTSEDSAVYYCARDRYDEGNAMDYWGQGTSVTVSS
VL: DIVMTQTTSSLSASLGDRVTISCRASQDITNYLNWYQQKPDGTVKLLIYYTSRLHSGVPSRFSGSGSGTDYSLTISNLEQEDIATYFCQQGDTLPRTFGGGTKLEIK
notes: Full chains are not tied by name
B6: chimeric antibody 1A2-7 (antibody, V domains shown)
VH: B5 VH with E1Q, V81M
VL: B5 VL
B7: chimeric antibody 3G9-1 (antibody, V domains shown)
VH: QVQLQQPGAELVKPGASVKLSCKASGYTFTSYWMHWVKQRPGQGLEWIGEINPSNGRTNYNEKFKSKATLIVDKSSSTAYMQLSSLTSEDSAVYYCARGIYYGYDYAMDYWGQGTSVTVSS
VL: B5 VL with V3Q, Q6H, T30S, D92N, R96P
notes: as for B5
B8: chimeric antibody 5E11-2 (antibody, V domains shown)
VH: EVKLEESGGGLVQPGGSMKLSCAASGFTFSDAWMDWVRQSPEKGLEWVAEIRSKPNNHATYYAESVKGRFTISRDDSKSSVYLQMNSLRAEDTGIYYCTRTTDYSMDYWGQGTSVTVSS
VL: DIQMTQSPASLAVSLGQRATISCRASQSVSASSYSYMHWYQQKPGQPPKLLIKYASNLQSGVPARFSGSGSGTDFTLNIHPVEEEDSATYYCQHSWEIPRTFGGGTKLEIK
notes: as for B5

What follows are binders tested against T1, LILRB4 on LILRB4 effector reporter cells (jurkat-LILRB4) (UniProt Q8NHJ6 22-448) (assay: cell-based or functional assay).

Row | Binder | EC50 (read off the curve); luciferase RLU, blocking of APOE
1 | B1 | ~10 ng/mL
2 | B2 | ~20 ng/mL
3 | B3 | ~10 ng/mL
4 | B4 | ~20 ng/mL

Each binder was assayed against T2, Human LILRB4/CD85k/ILT3 Protein (ECD, His Tag), Sino Biological (human, UniProt Q8NHJ6 22-259) (assay: ELISA, human LILRB4 ECD-His coated, HRP goat anti-human IgG Fc, OD450).
T2 construct: extracellular domain; It is not tied to this bought protein; also called LILRB4 protein; not shown: His tag

Row | Binder | EC50 (read off the curve)
5 | B1 | ~30 ng/mL
6 | B2 | ~30 ng/mL
7 | B3 | ~30 ng/mL
8 | B4 | ~30 ng/mL

The binders below were run against T3, LILRB4 on human mononuclear leukemia cells THP-1 (human, UniProt Q8NHJ6 22-448) (assay: flow cytometry on THP-1 cells, PE goat anti-human IgG Fc, MFI).
T3 construct: whole, on cells; The protein is endogenous to the cells; also called LILRB4 positive cells THP-1

Row | Binder | EC50 (read off the curve)
9 | B1 | ~30 ng/mL
10 | B2 | ~30 ng/mL
11 | B3 | ~30 ng/mL
12 | B4 | ~40 ng/mL

Target: T1, LILRB4 on LILRB4 effector reporter …
Test: cell-based or functional assay
Remark: another data set of the same source

Row | Binder | EC50 (read off the curve); luciferase RLU, blocking of APOE
13 | B5 | ~10 ng/mL

Target: T1, LILRB4 on LILRB4 effector reporter …
Test: cell-based or functional assay
Remark: another data set of the same source

Row | Binder | EC50 (read off the curve); luciferase RLU, blocking of APOE
14 | B6 | ~0.03 ng/mL

These binders were tested against T4, LILRB4 (Beijing ACROBiosystems, article number LI4-H52H7, 6xHis label) (human, UniProt Q8NHJ6 22-259) (assay: SPR, BIACORE 8K; antibody captured on Protein A chip, LILRB4-6xHis as analyte).
T4 construct: Analyte (mobile phase) in the BIACORE 8K assay; also called Human LILRB4; not shown: 6xHis label
Description: A BIACORE 8K biomacromolecule interactor (GE Company) was adopted to analyze the affinity of an antibody. A Series S Sensor Chip Protein A Chip (GE Company) was used for capturing an antibody to be detected, the concentration of the antibody to be detected was set to be 15 μg/mL, and the sample was fed at a speed of 10 μl/min until RU=500; LILRB4 (Beijing ACROBiosystems, article number: LI4-H52H7, 6×His label, and the theoretical molecular weight: 28.2 Kda) was used as a mobile phase, 6 concentration gradients (0.0977 nM-200 nM) were used, and the binding time was 180 sec; and the dissociation time was 300 sec. The result of the affinity of the antibody to be detected is as set forth in follows: […]

Row | Binder | Kd | koff | kon
15 | B1 | 2.81 nM | 0.00433 s⁻¹ | 1.54e+06 M⁻¹ s⁻¹
16 | B2 | 3.29 nM | 0.00834 s⁻¹ | 2.53e+06 M⁻¹ s⁻¹
17 | B3 | 2.77 nM | 0.00343 s⁻¹ | 1.24e+06 M⁻¹ s⁻¹
18 | B4 | 2.33 nM | 0.00418 s⁻¹ | 1.8e+06 M⁻¹ s⁻¹

Target: T2, Human LILRB4/CD85k/ILT3 Protein (ECD, …)
Test: ELISA, human LILRB4 ECD-His coated, HRP goat anti-human IgG Fc, OD450
Remark: another data set of the same source

Row | Binder | EC50 (read off the curve)
19 | B6 | ~30 ng/mL
20 | B7 | ~20 ng/mL
21 | B5 | ~30 ng/mL
22 | B8 | ~50 ng/mL

Each binder was assayed against T5, Human LILRB2/ILT4/LIR-2 Protein (ECD, His Tag), Sino Biological (human, UniProt Q8N423 22-460) (assay: ELISA, LILRB family proteins (His tag) coated, antibody at 10 ug/mL, HRP goat anti-human IgG Fc, OD450).
T5 construct: extracellular domain; not shown: His tag
T5 sequence (Q8N423 22-460): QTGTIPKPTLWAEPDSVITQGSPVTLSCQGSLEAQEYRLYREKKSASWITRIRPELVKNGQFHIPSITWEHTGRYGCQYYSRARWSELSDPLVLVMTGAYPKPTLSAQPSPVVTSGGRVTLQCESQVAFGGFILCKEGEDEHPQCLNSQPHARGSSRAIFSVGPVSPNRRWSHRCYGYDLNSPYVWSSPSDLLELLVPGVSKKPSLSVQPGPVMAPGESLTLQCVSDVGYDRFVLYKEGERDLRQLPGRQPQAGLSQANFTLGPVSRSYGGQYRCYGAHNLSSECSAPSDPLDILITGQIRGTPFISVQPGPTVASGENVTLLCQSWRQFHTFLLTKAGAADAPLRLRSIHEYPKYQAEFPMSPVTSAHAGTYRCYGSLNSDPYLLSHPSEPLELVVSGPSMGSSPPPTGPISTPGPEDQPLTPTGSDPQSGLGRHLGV

Row | Binder | binding result
23 | B6 | no binding (tested: 10 ug/mL)
24 | B7 | no binding (tested: 10 ug/mL)
25 | B5 | no binding (tested: 10 ug/mL)
26 | B8 | no binding (tested: 10 ug/mL)

The binders below were run against T6, Human LILRB5/CD85c/LIR-8 Protein (ECD, His Tag), Sino Biological (human, UniProt O75023 24-458) in the same assay as above.
T6 construct: extracellular domain; not shown: His tag
T6 sequence (O75023 24-458): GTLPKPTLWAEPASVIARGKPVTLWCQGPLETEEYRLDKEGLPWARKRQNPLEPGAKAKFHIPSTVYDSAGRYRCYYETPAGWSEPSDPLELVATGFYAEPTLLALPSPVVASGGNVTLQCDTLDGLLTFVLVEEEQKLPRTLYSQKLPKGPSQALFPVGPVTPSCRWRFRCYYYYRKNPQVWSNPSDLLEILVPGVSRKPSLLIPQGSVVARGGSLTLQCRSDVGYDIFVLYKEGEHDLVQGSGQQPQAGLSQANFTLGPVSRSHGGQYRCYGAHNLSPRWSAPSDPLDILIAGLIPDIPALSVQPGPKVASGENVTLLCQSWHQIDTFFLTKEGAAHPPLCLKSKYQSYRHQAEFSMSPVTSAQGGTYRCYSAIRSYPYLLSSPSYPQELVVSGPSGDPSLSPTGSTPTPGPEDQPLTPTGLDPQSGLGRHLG

Row | Binder | binding result
27 | B6 | no binding (tested: 10 ug/mL)
28 | B7 | no binding (tested: 10 ug/mL)
29 | B5 | no binding (tested: 10 ug/mL)
30 | B8 | no binding (tested: 10 ug/mL)

Each binder was assayed against T7, Human LILRB3/LIR3/ILT5/CD85a Protein (ECD, His Tag), Sino Biological (human, UniProt O75022 24-443) in the same assay as above.
T7 construct: extracellular domain; not shown: His tag
T7 sequence (O75022 24-443): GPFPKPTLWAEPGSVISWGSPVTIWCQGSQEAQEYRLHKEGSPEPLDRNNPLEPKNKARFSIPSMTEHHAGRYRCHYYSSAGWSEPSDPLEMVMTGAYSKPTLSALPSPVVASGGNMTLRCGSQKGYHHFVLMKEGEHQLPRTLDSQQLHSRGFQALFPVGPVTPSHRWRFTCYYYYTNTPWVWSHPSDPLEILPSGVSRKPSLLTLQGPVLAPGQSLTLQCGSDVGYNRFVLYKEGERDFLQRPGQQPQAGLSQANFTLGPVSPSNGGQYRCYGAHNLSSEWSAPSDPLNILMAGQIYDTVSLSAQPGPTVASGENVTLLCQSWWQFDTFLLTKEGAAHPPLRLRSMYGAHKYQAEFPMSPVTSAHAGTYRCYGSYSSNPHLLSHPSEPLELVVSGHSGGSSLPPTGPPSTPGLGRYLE

Row | Binder | binding result
31 | B6 | no binding (tested: 10 ug/mL)
32 | B7 | no binding (tested: 10 ug/mL)
33 | B5 | no binding (tested: 10 ug/mL)
34 | B8 | no binding (tested: 10 ug/mL)

What follows are binders tested against T8, Human LILRB1/CD85/ILT2/ILR1 Protein (ECD, His Tag), Sino Biological (human, UniProt Q8NHL6 24-461) in the same assay as above.
T8 construct: extracellular domain; not shown: His tag
T8 sequence (Q8NHL6 24-461): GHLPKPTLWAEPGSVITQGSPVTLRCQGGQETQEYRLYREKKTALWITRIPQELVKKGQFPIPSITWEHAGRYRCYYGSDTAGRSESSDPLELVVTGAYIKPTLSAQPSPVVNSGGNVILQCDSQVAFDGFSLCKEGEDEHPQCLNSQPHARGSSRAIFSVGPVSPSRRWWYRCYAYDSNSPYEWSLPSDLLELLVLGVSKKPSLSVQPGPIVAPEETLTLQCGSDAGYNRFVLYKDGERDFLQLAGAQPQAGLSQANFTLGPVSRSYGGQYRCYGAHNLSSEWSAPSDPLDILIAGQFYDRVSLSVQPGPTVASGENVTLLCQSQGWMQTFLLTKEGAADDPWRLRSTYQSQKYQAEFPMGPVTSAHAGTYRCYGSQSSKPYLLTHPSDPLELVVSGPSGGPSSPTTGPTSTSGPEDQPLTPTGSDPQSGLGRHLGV

Row | Binder | binding result
35 | B6 | no binding (tested: 10 ug/mL)
36 | B7 | no binding (tested: 10 ug/mL)
37 | B5 | no binding (tested: 10 ug/mL)
38 | B8 | no binding (tested: 10 ug/mL)

Each binder was assayed against human LILRB4 on 293T-hLILRB4 cells (human, UniProt Q8NHJ6 22-448) (assay: cell-based or functional assay).

Row | Binder | EC50 (read off the curve); ADCC reporter induction multiple
39 | B1 | ~60 ng/mL
40 | B2 | ~60 ng/mL
41 | B3 | ~60 ng/mL
42 | B4 | ~50 ng/mL

From patent US20260250379A1 (HANGZHOU SUMGEN BIOTECH, published 2026)
